{"source": "patent US7425614B2", "about": "“Neuroprotective therapeutics preventing ERK/MAPK activation through the NMDA receptor” (Children's Medical Center Corporation, priority 2003, dated 2008)", "assay_type_in_all_cases": "cell-based, rat", "key": {"[1]": {"test_system": "NR2B", "experiment": "immunocytochemistry of NR2B and PSD-95 clusters in cultured neurons", "text": "Coverslips with cultured neurons were fixed with 4% paraformaldehyde, permeabilized with 0.3% Triton X-100, and blocked in 10% goat serum in PBS. A rabbit polyclonal antibody against the N terminus of the NR2B subunit of the NMDA receptor (AB1557P, Chemicon, Temecula, Calif.) was used for detection in neurons expressing GFP and RasGRF1-BD. These antibodies could not be used for study of the NR2B subunit distribution in neurons expressing NR2B-BD since they recognized the expressed construct. The distribution of NR2A/B subunit was determined using polyclonal antibody AB 1548 (Chemicon). A mouse monoclonal antibody (clone K 28/43, Upstate, Waltham, Mass.) was used to detect PSD-95. Secondary antibodies were the same as that used for detection of ERK and MAP2. To quantify the distribution of clusters in transfected cells, we first focused on dendrites of neurons expressing the EGFP fluorescent construct. Thereafter, fluorescent images of GFP, NR2B, and PSD-95 were acquired confocally (60×; NA 1.4 objective, zoom 5). Cluster density and brightness were analyzed with the MetaMorph Imaging System (Universal Imaging, Westchester, Pa.). Ten neurons were analyzed from each experiment (3-4 dendritic regions for each neuron)."}, "[2]": {"test_system": "NMDA receptor", "experiment": "whole-cell recordings of NMDAR-mediated currents in cultured hippocampal neurons"}, "[3]": {"test_system": "CA1 pyramidal neurons", "experiment": "Assay II: propidium iodide (PI) resistance in organotypic hippocampal slice cultures", "conditions": "NMDA (50 μM) 20 minutes or ischemia; compared to non-transfected or GFP transfected control cells", "method": "(A) Survival of hippocampal neurons in culture exposed to Glutamate (100 μM) and Glycine (10 μM) for a 20 minute period. 14 div neuronal cultures were transfected with GFP, NR2B-BD or RasGRF1-BD 24 hours prior to analysis. The neuronal cultures were then incubated with glutamate for 20 minutes, washed with culture media and returned to the incubator for an additional 24 hours. The cells were then fixed with PFA and stained with a neuronal specific antibody, Map2. […] (B) Percentage of propidium iodide-resistant (surviving) neurons in organotypic hippocampal slices (P5+7div) expressing GFP, NR2B-BD or […] in control conditions and after 20 minutes exposure to NMDA (50 μM). The fluorescence of propidium iodide (PI) was measured 24 hours later. PI enters damaged cells and is a convenient tool to determine neuronal cell death. For PI staining, the slices were incubated in culture medium containing 0.1 mg/ml PI for 2 h. […]\nAssay II: propidium iodide (PI) resistance. […] Cell death was measured as cellular uptake of PI (3,8-diamino-5-[3-([…])propyl]-6-phenyl phenanthridinium diiodide at 24 and 48 h after exposure to NMDA or ischemia. As shown in FIG. 7(B), the expression of both NR2B-BD and RasGRF1-BD increased the percentage of neuronal survival (e.g., the percentage of PI negative neurons) as compared to non-transfected or GFP transfected control cells."}, "[4]": {"test_system": "hippocampal neurons", "experiment": "Assay I: glutamate excitotoxicity in primary cultures of dissociated hippocampal neurons", "conditions": "20 minute exposure to Glutamate (100 μM) and Glycine (10 μM); expression in neurons; n=5", "method": "(A) Survival of hippocampal neurons in culture exposed to Glutamate (100 μM) and Glycine (10 μM) for a 20 minute period. 14 div neuronal cultures were transfected with GFP, NR2B-BD or RasGRF1-BD 24 hours prior to analysis. The neuronal cultures were then incubated with glutamate for 20 minutes, washed with culture media and returned to the incubator for an additional 24 hours. The cells were then fixed with PFA and stained with a neuronal specific antibody, Map2. […] (B) Percentage of propidium iodide-resistant (surviving) neurons in organotypic hippocampal slices (P5+7div) expressing GFP, NR2B-BD or […] in control conditions and after 20 minutes exposure to NMDA (50 μM). The fluorescence of propidium iodide (PI) was measured 24 hours later. PI enters damaged cells and is a convenient tool to determine neuronal cell death. For PI staining, the slices were incubated in culture medium containing 0.1 mg/ml PI for 2 h. GFP, NR2B-BD and […] were expressed using the SindBis expression system. Mean±SEM. N=3.\nAssay I: primary cultures of dissociated hippocampal neurons (FIG. 7(A)). This method may be used to analyze the mechanisms of glutamate-dependent excitotoxicity (see e.g., Medina, et al., Eur J Neurosci. (1999) 11(4): 1167-78). Briefly, neuronal cell death was induced by a 20 minute exposure to Glutamate (100 μM) and Glycine (10 μM). […]"}}}
{"molecule": "NR2B-BD: peptide of amino acids 886-1310 of the NR2B C-terminal domain that binds RasGRF1; used as NusA or EGFP fusion (protein, left off: small tags and cut ends, used as NusA or EGFP fusion) SPTATMNNTHSNILRLLRTAKNMANLSGVNGSPQSALDFIRRESSVYDISEHRRSFTHSDCKSYNNPPCEENLFSDYISEVERTFGNLQLKDSNVYQDHYHHHHRPHSIGSTSSIDGLYDCDNPPFTTQPRSISKKPLDIGLPSSKHSQLSDLYGKFSFKSDRYSGHDDLIRSDVSDISTHTVTYGNIEGNAAKRRKQQYKDSLKKRPASAKSRREFDEIELAYRRRPPRSPDHKRYFRDKEGLRDFYLDQFRTKENSPHWEHVDLTDIYKERSDDFKRDSVSGGGPCTNRSHLKHGTGEKHGVVGGVPAPWEKNLTNVDWEDRSGGNFCRSCPSKLHNYSSTVAGQNSGRQACIRCEACKKAGNLYDISKDNSLQELDQPAAPVAVTSNASSTKYPQSPTNSKAQKKNRNKLRRQHSYDTFVDL", "values": [{"measurement": "average number NR2B-positive clusters", "setting": "[1]; compared to cells expressing GFP alone", "value": "did not reveal any changes"}, {"measurement": "localization or density of NR2B or PSD-95", "setting": "[1]; cultured neurons expressing blocking peptides", "value": "did not change"}, {"measurement": "average amplitude of the whole-cell current induced by bath application of NMDA", "setting": "[2]; 100 μM NMDA, neurons expressing BD fusion constructs", "value": "did not affect"}, {"measurement": "proportion of ifenprodil-sensitive (NR2B) current stimulated by NMDA bath application", "setting": "[2]; cultured neurons, 3 μM ifenprodil", "value": "neither RasGRF1-BD nor NR2B-BD expression changed"}, {"measurement": "mean amplitude and kinetics of the spontaneous NMDAR-mediated excitatory postsynaptic currents", "setting": "[2]; neurons expressing BD fusion constructs", "value": "did not affect"}, {"measurement": "percentage of neuronal survival (PI negative neurons)", "setting": "[3]", "value": "increased"}, {"measurement": "decrease of neuronal cell death induced by glutamate and glycine", "setting": "[4]", "value": "47±2", "unit": "%"}]}
